Molecular target: phospho His-cSrcKD-K295M/Y416F (human)
Experiment: BLI

Row | Kd [µM] | kon [M⁻¹ s⁻¹] | Substance
1 | 34 | 998 | rPTPεD1-C335S (D1 domain of receptor protein tyrosine phosphatase epsilon, substrate-trapping mutant) (domain or fragment)
2 | 257 | 128 | rPTPεD1-C335S/R220E (domain or fragment)

From publication doi:10.1101/2021.01.13.426511
